Numbering of substitutions follows the chain as printed. Read-outs that look alike come from different tables or passages of the source.

The target in assay [1] is T1, cell surface-expressed human αvβ8 (human, UniProt P06756 31-1048; P26012 43-769). The assay can be described thus: cell-based or functional assay.
In assay [2] the target is T1, cell surface-expressed human αvβ8. Nature of the assay: FACS titration on SNB19 human astrocytoma cells. Here is the method:
(§1) The affinities of humanized, affinity-matured anti-αvβ8 IgGs (ADWA16-1, ADWA16-2, ADWA16-3, and ADWA16-4), a chimeric version of the parent ADWA16 murine IgG (ADWA16-chimera), and ADWA16 were measured on SNB19 human astrocytoma cells by FACS. IgGs were incubated at various concentrations with SNB19 cells for 1 hr at RT in PBS. Cells were washed twice with PBS and binding was detected by incubation with fluorescently-labeled anti-human (ADWA16-1, ADWA16-2, ADWA16-3, ADWA16-4, and ADWA16-chimera) or anti-mouse (ADWA16) secondary antibodies followed by two PBS wash steps and analysis by FACS. Binding affinities (shown in Table 3) were calculated using curve-fitting software.

For assay [3], the target named is T2, recombinant mouse αvβ8 (mouse, UniProt P43406 31-988; Q0VBD0 43-681, limits assumed).
T2 construct: Soluble recombinant heterodimer used as analyte at 200 nM in BLI
The assay can be described thus: bio-layer interferometry, IgG on anti-human Fab-CH1 tips, αvβ8 200 nM. As for the experimental part:
(§2) The affinities of humanized, affinity-matured anti-αvβ8 IgGs (ADWA16-1, ADWA16-2, ADWA16-3, and ADWA16-4) and a chimeric version of the parent ADWA-16 murine IgG (ADWA16-chimera) were measured for recombinant human and mouse αvβ8 using bio-layer interferometry. Anti-human Fab-CH1 tips were loaded with humanized anti-αvβ8 IgGs (ADWA16-1, ADWA16-2, ADWA16-3, and ADWA16-4) or chimeric ADWA-16 followed by an association step with either human or mouse αvβ8 (200 nM) and a subsequent dissociation step. All steps were carried out in binding buffer (25 mM Tris, 0.15 M NaCl, 0.05% Tween-20, pH 7.5). Binding affinities (shown in Table 2) were calculated using curve-fitting software. FIGS. 3A-3E show association/dissociation curves for each antibody.
For orientation: In BLI a coated tip is dipped into the sample, and binding shifts an interference pattern.

Assay [4] concerns the target T3, recombinant human αvβ8 (human, UniProt P06756 31-992; P26012 43-684).
T3 construct: Soluble recombinant heterodimer used as analyte at 200 nM in BLI
Described as above. Here is the method:
as §2

For assay [5], the target named is T2, recombinant mouse αvβ8. Described as above. As for the experimental part:
(§3) The affinities of humanized, affinity-matured anti-αvβ8 IgGs (ADWA16-3 and ADWA16-3.2) and a chimeric version of the parent ADWA16 murine IgG (ADWA16-chimera) were measured for recombinant human and mouse αvβ8 using bio-layer interferometry. Anti-human Fab-CH1 tips were loaded with humanized anti-αvβ8 IgGs or chimeric ADWA16 followed by an association step with either human or mouse αvβ8 (200 nM) and a subsequent dissociation step. All steps were carried out in binding buffer (25 mM Tris, 0.15 M NaCl, 0.05% Tween-20, pH 7.5). Binding affinities (shown in Table 4) were calculated using curve-fitting software.
This is another data set of the same source.

The target of assay [6] is T3, recombinant human αvβ8. The assay is described as above. As for the experimental part:
as §3
The source holds these as a separate data set.

Assay [7] concerns the target T4, surface-expressed mouse αvβ8 on murine astrocytes (mouse, UniProt P43406 31-1044; Q0VBD0 22-767).
T4 construct: whole, on cells
Nature of the assay: FACS titration on murine astrocytes. Here is the method: The affinities of ADWA16, ADWA11, and ADWA16-3.2 were measured on murine astrocytes by FACS. IgGs were incubated at various concentrations with the cells for 1 hr at RT in PBS. Cells were washed twice with PBS and binding was detected by incubation with fluorescently-labeled anti-human or anti-mouse secondary antibodies followed by two PBS wash steps and analysis by FACS.

Assay [8] has as its target T1, cell surface-expressed human αvβ8. The assay can be described thus: FACS on SNB19 human astrocytoma cells, fluorescent secondary antibody. As for the experimental part: (§4) The affinities of ADWA16-3.2 and ADWA11 were measured on SNB19 human astrocytoma cells by FACS. IgGs were incubated at various concentrations with SNB19 cells for 1 hour at RT in PBS. Cells were washed twice with PBS and binding was detected by incubation with fluorescently-labeled anti-human secondary antibodies followed by two PBS wash steps and analysis by FACS. Binding affinities were calculated using curve-fitting software.

Assay [9] has the same target. The assay can be described thus: FACS titration on SNB19 human astrocytoma cells; Example 13 FACS on SNB19 cells; detected with anti-human secondary, ADWA11 format not stated. As for the experimental part:
as §4

Assay [10] has the same target. Nature of the assay: FACS titration on SNB19 human astrocytoma cells; Table 3 FACS series on SNB19 cells, run beside ADWA16, 16-chimera and 16-1 to 16-4. As for the experimental part: as §1
The target is the same in assay [11]. Nature of the assay: FACS titration on SNB19 human astrocytoma cells; Example 7 FACS series on SNB19 cells, run beside ADWA16-3.2. As for the experimental part:
(§5) The affinities of humanized, affinity-matured, and N-glycosylation site removed anti-αvβ8 IgGs (ADWA16-3 and ADWA16-3.2) were measured on SNB19 human astrocytoma cells by FACS. IgGs were incubated at various concentrations with SNB19 cells for 1 hr at RT in PBS. Cells were washed twice with PBS and binding was detected by incubation with fluorescently-labeled anti-human secondary antibodies followed by two PBS wash steps and analysis by FACS.

In assay [12] the target is T5, cell surface expressed human αvβ6 (SW480 cells transfected to express αvβ6) (human, UniProt P06756 31-1048; P18564 22-788).
T5 construct: whole, on cells
The assay can be described thus: flow cytometry on transfected SW480 cells. As for the experimental part: (§6) The binding of ADWA16 and ADWA16-3.2 to cell surface expressed human αvβ3, αvβ5, αvβ6, and αvβ8 was tested by FACS. Flow cytometry was performed with either ADWA16-3 or ADWA16-3.2 with mock transfected SW480 cells (that express only αvβ5 integrin). SW480 cells were also transfected to express αvβ3 or αvβ6. SNB19 cells expressed αvβ3, αvβ5, and αvβ8.
In general terms: Flow cytometry measures light scatter and fluorescence of single cells or particles in a stream.

For assay [13], the target named is T6, cell surface expressed human αvβ3 (SW480 cells transfected to express αvβ3) (human, UniProt P06756 31-1048; P05106 27-788).
T6 construct: whole, on cells
The assay can be described thus: flow cytometry on transfected SW480 cells. Here is the method:
as §6

The target of assay [14] is T7, cell surface expressed human αvβ5 (mock transfected SW480 cells) (human, UniProt P06756 31-1048; P18084 24-799).
T7 construct: whole, on cells
Nature of the assay: flow cytometry on mock transfected SW480 cells (express only αvβ5); panel head 'A09 SW antihuman con'. Here is the method: as §6

In assay [15] the target is T1, cell surface-expressed human αvβ8. The assay can be described thus: FACS titration on SNB19 human astrocytoma cells; Example 13 FACS series on SNB19 cells, run beside ADWA11. As for the experimental part: as §4
Assay [16] shares this target. The assay can be described thus: FACS titration on SNB19 human astrocytoma cells; Example 7 FACS series on SNB19 cells, run beside ADWA16-3. As for the experimental part: as §5

T1 sequence (P06756 31-1048, chain 1 of 2): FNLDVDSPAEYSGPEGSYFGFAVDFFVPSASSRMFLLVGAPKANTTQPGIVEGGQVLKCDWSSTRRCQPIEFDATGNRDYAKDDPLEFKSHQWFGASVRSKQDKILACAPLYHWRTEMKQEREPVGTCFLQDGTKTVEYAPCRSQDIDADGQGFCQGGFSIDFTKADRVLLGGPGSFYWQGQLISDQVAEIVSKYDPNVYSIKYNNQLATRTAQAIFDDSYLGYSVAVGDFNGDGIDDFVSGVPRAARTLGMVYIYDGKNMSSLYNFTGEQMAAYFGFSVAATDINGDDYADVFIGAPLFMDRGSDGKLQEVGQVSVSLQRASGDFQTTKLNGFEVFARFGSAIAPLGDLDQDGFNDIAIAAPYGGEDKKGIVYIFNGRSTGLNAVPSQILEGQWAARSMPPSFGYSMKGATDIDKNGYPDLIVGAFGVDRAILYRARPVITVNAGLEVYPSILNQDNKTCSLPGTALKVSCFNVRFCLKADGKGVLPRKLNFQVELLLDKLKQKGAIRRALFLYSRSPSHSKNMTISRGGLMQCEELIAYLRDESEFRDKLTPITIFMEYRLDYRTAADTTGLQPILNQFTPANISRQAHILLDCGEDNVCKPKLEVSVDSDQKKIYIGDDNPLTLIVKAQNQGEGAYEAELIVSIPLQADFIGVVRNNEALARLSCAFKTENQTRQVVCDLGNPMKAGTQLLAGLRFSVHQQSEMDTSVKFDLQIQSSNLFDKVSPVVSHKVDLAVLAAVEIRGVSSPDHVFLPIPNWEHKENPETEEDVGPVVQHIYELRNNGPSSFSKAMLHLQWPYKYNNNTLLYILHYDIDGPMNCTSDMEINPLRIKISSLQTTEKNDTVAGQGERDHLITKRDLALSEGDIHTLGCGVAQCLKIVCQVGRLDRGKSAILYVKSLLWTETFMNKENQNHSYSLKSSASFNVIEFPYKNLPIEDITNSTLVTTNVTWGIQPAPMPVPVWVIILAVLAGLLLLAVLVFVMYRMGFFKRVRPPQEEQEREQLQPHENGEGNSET
T1 sequence (P26012 43-769, chain 2 of 2): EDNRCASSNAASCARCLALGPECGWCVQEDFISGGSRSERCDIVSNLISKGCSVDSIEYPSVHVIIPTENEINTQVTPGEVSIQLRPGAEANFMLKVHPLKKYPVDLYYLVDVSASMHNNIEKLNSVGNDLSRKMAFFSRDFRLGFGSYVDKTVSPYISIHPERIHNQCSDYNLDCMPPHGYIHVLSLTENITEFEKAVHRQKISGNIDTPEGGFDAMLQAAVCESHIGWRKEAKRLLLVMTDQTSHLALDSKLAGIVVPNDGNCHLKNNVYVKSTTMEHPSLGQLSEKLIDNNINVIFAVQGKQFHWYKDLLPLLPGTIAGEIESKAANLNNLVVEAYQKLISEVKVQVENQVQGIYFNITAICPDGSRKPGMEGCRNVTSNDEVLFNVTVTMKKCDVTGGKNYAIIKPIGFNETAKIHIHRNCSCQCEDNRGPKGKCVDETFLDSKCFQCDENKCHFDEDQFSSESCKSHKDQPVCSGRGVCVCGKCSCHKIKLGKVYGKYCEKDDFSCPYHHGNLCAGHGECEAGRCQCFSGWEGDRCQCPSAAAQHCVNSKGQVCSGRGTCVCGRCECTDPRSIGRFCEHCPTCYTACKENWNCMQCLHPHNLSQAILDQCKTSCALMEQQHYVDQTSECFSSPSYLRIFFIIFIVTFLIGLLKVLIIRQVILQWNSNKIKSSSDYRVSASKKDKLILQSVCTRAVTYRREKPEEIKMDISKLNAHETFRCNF
T2 sequence (P43406 31-988 limits assumed, chain 1 of 2): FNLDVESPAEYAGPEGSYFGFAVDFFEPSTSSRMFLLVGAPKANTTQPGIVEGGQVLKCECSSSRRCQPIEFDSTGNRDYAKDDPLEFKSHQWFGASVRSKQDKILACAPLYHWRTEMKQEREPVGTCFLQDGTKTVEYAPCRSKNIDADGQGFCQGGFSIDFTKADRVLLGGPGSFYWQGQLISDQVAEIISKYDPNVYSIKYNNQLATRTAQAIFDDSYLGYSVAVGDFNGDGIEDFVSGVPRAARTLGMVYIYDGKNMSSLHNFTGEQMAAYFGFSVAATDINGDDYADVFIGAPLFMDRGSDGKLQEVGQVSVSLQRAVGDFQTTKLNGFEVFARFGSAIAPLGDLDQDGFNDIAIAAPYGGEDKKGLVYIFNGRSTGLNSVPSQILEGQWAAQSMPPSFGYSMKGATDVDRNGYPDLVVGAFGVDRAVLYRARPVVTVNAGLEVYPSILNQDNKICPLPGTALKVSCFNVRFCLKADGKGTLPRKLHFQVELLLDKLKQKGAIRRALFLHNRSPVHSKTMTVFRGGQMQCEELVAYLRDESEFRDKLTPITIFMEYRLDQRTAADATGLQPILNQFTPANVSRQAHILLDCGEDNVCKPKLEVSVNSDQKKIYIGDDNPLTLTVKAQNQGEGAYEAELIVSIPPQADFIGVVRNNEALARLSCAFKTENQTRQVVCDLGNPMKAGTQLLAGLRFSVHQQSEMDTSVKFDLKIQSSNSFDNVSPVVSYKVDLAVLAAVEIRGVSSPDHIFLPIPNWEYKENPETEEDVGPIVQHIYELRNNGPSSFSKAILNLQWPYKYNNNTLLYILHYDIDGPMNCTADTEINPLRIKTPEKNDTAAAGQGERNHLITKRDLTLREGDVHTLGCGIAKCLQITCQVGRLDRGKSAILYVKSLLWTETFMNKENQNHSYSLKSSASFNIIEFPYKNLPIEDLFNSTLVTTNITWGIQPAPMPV
T2 sequence (Q0VBD0 43-681 limits assumed, chain 2 of 2): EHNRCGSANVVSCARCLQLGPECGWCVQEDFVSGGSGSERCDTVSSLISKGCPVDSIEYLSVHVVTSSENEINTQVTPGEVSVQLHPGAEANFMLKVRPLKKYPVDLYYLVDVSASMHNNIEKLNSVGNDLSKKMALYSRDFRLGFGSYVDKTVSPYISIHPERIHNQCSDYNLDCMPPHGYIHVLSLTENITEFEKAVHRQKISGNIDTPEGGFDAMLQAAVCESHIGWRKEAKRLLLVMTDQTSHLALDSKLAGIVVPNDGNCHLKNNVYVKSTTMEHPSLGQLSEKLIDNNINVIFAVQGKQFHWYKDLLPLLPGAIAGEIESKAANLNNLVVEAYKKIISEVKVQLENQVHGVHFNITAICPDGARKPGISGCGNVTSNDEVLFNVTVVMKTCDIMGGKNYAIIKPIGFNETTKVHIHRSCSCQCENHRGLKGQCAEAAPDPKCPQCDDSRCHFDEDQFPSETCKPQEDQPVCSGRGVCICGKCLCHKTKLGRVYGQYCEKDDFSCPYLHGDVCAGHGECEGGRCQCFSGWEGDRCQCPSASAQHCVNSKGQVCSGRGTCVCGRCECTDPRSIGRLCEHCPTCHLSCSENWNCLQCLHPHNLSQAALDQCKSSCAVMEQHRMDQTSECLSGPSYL
T3 sequence (P06756 31-992 limits assumed, chain 1 of 2): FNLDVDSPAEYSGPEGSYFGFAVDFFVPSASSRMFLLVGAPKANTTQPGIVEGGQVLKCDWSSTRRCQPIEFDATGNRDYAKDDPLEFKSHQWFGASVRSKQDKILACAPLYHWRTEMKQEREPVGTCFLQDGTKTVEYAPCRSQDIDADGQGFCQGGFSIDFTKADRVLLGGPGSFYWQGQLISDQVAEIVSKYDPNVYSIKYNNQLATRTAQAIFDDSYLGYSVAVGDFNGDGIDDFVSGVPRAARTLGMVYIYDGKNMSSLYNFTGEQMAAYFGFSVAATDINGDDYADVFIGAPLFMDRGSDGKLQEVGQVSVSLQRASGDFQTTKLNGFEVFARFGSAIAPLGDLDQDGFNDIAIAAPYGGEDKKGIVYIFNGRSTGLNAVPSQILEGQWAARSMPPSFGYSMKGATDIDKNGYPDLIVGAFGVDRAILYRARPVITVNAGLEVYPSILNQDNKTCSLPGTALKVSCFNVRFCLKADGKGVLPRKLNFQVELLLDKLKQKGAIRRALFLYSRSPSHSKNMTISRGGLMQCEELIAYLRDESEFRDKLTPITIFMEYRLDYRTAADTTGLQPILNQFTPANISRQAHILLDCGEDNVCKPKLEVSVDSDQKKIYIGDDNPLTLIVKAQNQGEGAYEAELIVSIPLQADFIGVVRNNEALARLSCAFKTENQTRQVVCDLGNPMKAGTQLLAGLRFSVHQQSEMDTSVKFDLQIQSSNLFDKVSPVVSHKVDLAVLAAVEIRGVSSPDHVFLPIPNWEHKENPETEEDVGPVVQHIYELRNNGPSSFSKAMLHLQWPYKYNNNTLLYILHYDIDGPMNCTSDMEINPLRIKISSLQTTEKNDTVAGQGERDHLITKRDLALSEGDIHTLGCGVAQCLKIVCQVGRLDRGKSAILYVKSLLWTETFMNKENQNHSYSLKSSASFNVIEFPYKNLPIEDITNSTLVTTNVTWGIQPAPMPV
T3 sequence (P26012 43-684 limits assumed, chain 2 of 2): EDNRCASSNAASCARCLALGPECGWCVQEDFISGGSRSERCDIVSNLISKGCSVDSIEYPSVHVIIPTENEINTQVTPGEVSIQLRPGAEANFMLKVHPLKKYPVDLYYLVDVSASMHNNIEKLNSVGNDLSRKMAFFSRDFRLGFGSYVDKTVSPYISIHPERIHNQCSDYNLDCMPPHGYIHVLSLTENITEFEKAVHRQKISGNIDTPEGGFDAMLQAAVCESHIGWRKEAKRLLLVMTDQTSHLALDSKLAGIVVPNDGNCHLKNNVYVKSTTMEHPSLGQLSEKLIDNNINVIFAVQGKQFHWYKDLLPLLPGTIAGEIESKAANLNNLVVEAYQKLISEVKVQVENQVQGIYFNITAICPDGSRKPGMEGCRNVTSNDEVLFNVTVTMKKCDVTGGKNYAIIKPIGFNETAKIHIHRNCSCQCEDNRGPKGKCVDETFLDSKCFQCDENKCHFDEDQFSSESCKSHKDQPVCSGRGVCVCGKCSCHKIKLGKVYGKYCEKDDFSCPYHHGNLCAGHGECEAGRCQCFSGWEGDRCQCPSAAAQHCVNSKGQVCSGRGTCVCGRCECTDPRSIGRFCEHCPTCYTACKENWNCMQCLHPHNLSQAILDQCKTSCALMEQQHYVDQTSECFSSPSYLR

B1: ADWA16 (antibody, V domains shown)
VH: QVQLQQSGAELAKPGASMKMSCKASGYTFSSYWIYWVKQRPGQGLEWIGYINPTTGYTEYNQKFRDKATLTADKSSNTAYMQLSSLTSEDSAVYYCATEGGNWEDYWGQGTTLTVSS
VL: DIQMTQTTSSLSASLGDRVTISCRASQDISNYLNWYQQKPDGTVKLLIYYTSRLYSGVPSRFSGSGSGTDYSLTISNLEPKDIATYYCQQFSELPRTFGGGTKLEIK
notes: Murine IgG, detected with anti-mouse secondary antibody; also called parent murine IgG; murine parent ADWA16
Turning to B1, in assay [1], the “IC50, inhibition of SNB19 cell adhesion to TGFβ1-LAP” value worked out at 1.1 nM; the “IC50, inhibition of TGFβ activation (SNB19 / TMLC luciferase reporter co-culture)” value was determined as 0.364 nM; the “inhibition of adhesion of L229 cells to LAP (potency relative to ADWA11)” value was approximately 10 fold. In addition, the dissociation constant Kd (commonly the free concentration of one partner at which half of the binding sites on the other are occupied at equilibrium, for simple one-to-one binding) in assay [2] was found to be 0.417 nM.

B2: ADWA16-chimera (antibody, V domains shown)
VH: B1 VH
VL: B1 VL
notes: It was captured on anti-human Fab-CH1 tips and detected with anti-human secondary, so it has human constant regions; also called chimeric ADWA-16; chimeric version of the parent ADWA16 murine IgG
With B2, the Kd in the assay with recombinant mouse αvβ8 [3] worked out at 21 nM; in the assay with recombinant human αvβ8 [4] it was 0.95 nM; with recombinant mouse αvβ8 [5], 21 nM; with recombinant human αvβ8 [6], 0.95 nM; in assay [2] it was 0.302 nM.

B3: ADWA11 (antibody, V domains shown)
VH: EVQLQQSGAELVRPGAFVKLSCKASGFNIKDYYMNWVLQRPEQGLEWIGWIDPDNGNTIYDPKFQGKASITADTSSNTAYLQLSSLTSEDTAVYYCARRLLMDYWGQGTSVTVSS
VL: DIVMTQAAPSVPVTPGESVSISCRSTKSLLHFNGNTYLFWFLQRPGQSPQRLIYYMSNLASGVPDRFSGRGSGTDFTLRISRVEAEDVGVYYCMQSLEYPFTFGTGTKLEIK
notes: IgG; also called ADWA1l
Regarding B3, the dissociation constant (Kd) came to 5.6 nM in assay [7] and 1.04 nM in [9]. The “IC50, inhibition of SNB19 cell adhesion to TGFb1 LAP” value in assay [1] worked out at 1.44 nM. Besides, in assay [8], the EC50 (read off the curve) (usually the concentration needed to bring the measured effect to its halfway point) is approximately 1 nM.

B4: ADWA16-3 (antibody, V domains shown)
VH: EVQLVESGGGLVQPGGSLRLSCAVSGYIFSSYWVYWVRQAPGKGLEWVGYINPTTGYTEYADSVKGRFTISRDNSKNTLYLQMNSLRAEDTAVYYCATEGGNWEDYWGQGTLVTVSS
VL: DIQMTQSPSSLSASVGDRVTITCRASQDISNYINWYQQKPGKAPKLLIYYTSRLYGGVPSRFSGSGSGTDFTLTISSLQPEDFATYYCQQFSELPRTFGQGTKVEIK
On to B4, for which the dissociation constant (Kd) with recombinant mouse αvβ8 [3] was found to be 5 nM; with recombinant human αvβ8 [4], 0.83 nM; in assay [10], 0.389 nM; with recombinant mouse αvβ8 [5] it was 3.15 nM; in the assay with recombinant human αvβ8 [6], 1.16 nM; in assay [11], 0.83 nM. Moreover, the binding result in [12], in [13] and in [14] was “no binding” throughout. Further, in assay [1], the “IC50, inhibition of TGFβ activation (SNB19 / TMLC luciferase reporter co-culture)” value was determined as 1.36 nM.

B5: ADWA16-2 (antibody, V domains shown)
VH: B4 VH
VL: B4 VL with Q27K, I33L, G56S
Consider B5, for which the Kd turned out to be 8.5 nM with recombinant mouse αvβ8 [3], 2 nM with recombinant human αvβ8 [4] and 0.498 nM in [2].

B6: ADWA16-3.2 (antibody, V domains shown)
VH: B4 VH with N52S, E59V
VL: B4 VL
notes: also called humanized derivative of ADWA16
With B6, the Kd in [7] turned out to be 1.1 nM; with recombinant mouse αvβ8 [5], 1.06 nM; with recombinant human αvβ8 [6] it was 0.688 nM; in [15], 0.392 nM; in assay [16] it was 0.512 nM. The binding result in [12], in assay [13] and in [14] was “no binding” in each case. The “IC50, inhibition of SNB19 cell adhesion to TGFb1 LAP” value in assay [1] worked out at 0.65 nM. In addition, the “IC50, inhibition of SNB19 cell adhesion to TGFβ1-LAP” value in [1] came to 2.1 nM. Also, in [1], the “IC50, inhibition of TGFβ activation (SNB19 / TMLC luciferase reporter co-culture)” value turned out to be 0.58 nM. In addition, the “EC50 (read off the curve)” value in assay [8] is approximately 0.4 nM.

B7: ADWA16-4 (antibody, V domains shown)
VH: B4 VH
VL: B4 VL with Q27K
B7: the values for the Kd (with recombinant mouse αvβ8 [3]; in the assay with recombinant human αvβ8 [4]; in assay [2]) were 8 nM, 0.86 nM and 0.614 nM, respectively.

B8: ADWA16-1 (antibody, V domains shown)
VH: B4 VH
VL: B4 VL with G56S
As for B8, the results for the Kd (in the assay with recombinant mouse αvβ8 [3]; with recombinant human αvβ8 [4]; in assay [2]) were 4.8 nM, 0.73 nM and 0.459 nM, respectively.

The record behind these values is patent publication US20250002587A1 (University of California, published 2025).
